We go through three molecules from US20230212306A1 (Daiichi Sankyo, published 2023).

Assay [1] has as its target T1, rat TLR7-Flag-His×6, expressed in Ba/F3 cells (rat, UniProt P58681 27-1050 (mouse entry)).
T1 construct: cells permeabilised with 0.1% saponin; not shown: Flag-His×6 tag added to the C-terminus
T1 chain: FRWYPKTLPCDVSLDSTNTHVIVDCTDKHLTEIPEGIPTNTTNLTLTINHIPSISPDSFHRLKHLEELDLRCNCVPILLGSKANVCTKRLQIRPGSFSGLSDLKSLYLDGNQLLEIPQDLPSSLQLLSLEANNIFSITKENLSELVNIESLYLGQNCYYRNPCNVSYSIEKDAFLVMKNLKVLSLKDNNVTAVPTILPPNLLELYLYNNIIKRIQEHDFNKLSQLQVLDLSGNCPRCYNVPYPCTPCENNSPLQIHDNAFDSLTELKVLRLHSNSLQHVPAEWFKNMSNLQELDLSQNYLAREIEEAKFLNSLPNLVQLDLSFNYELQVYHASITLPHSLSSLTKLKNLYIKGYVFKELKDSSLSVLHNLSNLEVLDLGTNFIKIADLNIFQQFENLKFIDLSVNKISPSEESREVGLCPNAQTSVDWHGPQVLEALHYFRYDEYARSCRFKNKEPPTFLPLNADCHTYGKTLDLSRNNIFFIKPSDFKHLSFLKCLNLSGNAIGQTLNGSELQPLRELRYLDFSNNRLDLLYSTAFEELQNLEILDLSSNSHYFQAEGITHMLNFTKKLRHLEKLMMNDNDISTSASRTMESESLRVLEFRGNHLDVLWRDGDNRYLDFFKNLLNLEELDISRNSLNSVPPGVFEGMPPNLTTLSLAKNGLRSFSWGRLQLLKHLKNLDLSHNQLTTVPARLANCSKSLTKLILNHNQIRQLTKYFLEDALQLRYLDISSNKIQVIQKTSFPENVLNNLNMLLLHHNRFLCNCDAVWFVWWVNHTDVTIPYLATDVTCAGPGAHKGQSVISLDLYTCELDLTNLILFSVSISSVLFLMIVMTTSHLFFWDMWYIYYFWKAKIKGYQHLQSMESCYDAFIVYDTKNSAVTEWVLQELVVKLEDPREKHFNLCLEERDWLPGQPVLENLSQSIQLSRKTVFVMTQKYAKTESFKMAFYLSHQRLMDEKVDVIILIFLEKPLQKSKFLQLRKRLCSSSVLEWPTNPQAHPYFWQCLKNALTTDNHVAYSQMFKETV
The assay can be described thus: flow cytometry (MFI) on saponin-permeabilised Ba/F3 cells expressing rat TLR7-Flag-His×6. From the text: (§1) The Ba/F3 cell line expressing human TLR7-Flag-His×6/human Unc93B1-HA×2 established above in 1)-1-1, the Ba/F3 cell line expressing mouse TLR7-Flag-His×6 established above in 2)-1-1, the Ba/F3 cell line expressing rat TLR7-Flag-His×6×2 established above in 2)-1-2, and the Ba/F3 cell line expressing monkey TLR7-Flag-His×6 established above in 2)-1-3 were subjected to membrane permeation with 0.1% Saponin and stained using AT01 antibody, NB7 antibody, and FAN2 antibody, and a secondary antibody, Goat anti-mouse IgG (H+L)-PE (eBioscience). The binding selectivity of each antibody was evaluated by comparing the average fluorescence intensity (MFI) based on flow cytometry analysis.
Background: In flow cytometry, cells or beads pass a laser one at a time.

The target in assay [2] is T2, monkey TLR7-Flag-His×6, expressed in Ba/F3 cells (monkey, UniProt Q9NYK1 27-1049 (human entry)).
T2 construct: cells permeabilised with 0.1% saponin; not shown: Flag-His×6 tag added to the C-terminus
T2 chain: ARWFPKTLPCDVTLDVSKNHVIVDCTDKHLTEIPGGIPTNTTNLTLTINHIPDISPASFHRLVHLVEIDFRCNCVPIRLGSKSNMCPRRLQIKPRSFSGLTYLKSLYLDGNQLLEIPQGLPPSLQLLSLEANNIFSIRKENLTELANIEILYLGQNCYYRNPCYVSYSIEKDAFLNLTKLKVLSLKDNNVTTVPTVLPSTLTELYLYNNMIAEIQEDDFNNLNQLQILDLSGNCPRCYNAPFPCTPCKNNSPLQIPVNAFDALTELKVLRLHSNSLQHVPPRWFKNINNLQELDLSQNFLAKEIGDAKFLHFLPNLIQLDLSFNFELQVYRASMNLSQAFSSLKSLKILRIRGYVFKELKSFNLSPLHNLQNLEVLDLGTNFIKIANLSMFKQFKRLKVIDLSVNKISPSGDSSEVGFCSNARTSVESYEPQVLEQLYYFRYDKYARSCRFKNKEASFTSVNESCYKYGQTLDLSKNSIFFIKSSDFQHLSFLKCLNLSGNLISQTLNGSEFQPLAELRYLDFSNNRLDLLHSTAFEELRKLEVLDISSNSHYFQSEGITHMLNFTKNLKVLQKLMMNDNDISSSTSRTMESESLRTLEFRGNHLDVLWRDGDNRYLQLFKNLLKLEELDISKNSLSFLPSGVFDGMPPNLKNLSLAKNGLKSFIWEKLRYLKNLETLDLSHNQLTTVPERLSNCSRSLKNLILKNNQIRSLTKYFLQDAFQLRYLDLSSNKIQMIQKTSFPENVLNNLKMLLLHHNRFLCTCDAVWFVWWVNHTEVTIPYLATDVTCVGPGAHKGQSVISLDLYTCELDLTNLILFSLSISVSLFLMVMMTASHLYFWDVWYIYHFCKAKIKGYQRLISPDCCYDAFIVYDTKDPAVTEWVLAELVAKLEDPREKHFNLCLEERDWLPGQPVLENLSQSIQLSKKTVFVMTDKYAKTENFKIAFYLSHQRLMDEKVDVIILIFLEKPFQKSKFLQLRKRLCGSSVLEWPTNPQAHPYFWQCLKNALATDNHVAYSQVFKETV
Put plainly: flow cytometry (MFI) on saponin-permeabilised Ba/F3 cells expressing monkey TLR7-Flag-His×6.
Description: as §1

B1: FAN2 antibody (antibody, IgG1, V domains shown)
VH: QVQLKESGPGLVAPSQSLSITCTVSGFSLTGYGVNWVRQPPGKGLEWLGMIWGDGSTDYNSALKSRLSIRKDNSKSQVFLKMNSLQTDDTARYYCARDKGYDGYYYAMDYWGQGTSVTVSS
VL: DIQMTQSPASLSASVGETVTITCRASENIYSYLAWYQQKQGKSPQLLVYDAKTLAEGVPSRFSGSGSGTQFSLKINSLQPEDFGSYYCQHHYGIPYTFGGGTKLEIK
notes: also called mouse anti-human TLR7 antibody (FAN2)
Regarding B1, the binding result in assay [1] is given as “no binding”; in assay [2], “binds”.

B2: NB7 antibody (antibody, IgG1, V domains shown)
VH: DVQLQESGPGLVKPSQSLSLTCTVTGYSITSDYAWNWIRQFPGNKLEWMGHISYRGNTNYNPSLKSRISITRDTSKNQFFLQLNSVTTEDTATYYCASWNYYGYVDYAMDYWGQGTSVTVSS
VL: DIQMTQTPSSLSASLGDRVTISCRASQDISNYLNWYQQKPDGTVKLLIYYTSRLHSGVPSRFSGSGSGTDYSLTINNLEQEDIATYFCQQGDTFPTFGGGTKLEIK
notes: also called mouse anti-human TLR7 antibody (NB7)
As to B2, the binding result in assay [1] is given as “no binding”; in assay [2] it was “binds”.

B3: AT01 antibody (antibody, IgG1, V domains shown)
VH: QVQLQQPGAELVKPGASVNLSCKASGYTFTNNWLHWVKQRPGRGLEWIGDIYPSNGRTNYNEQFKTKATLTVDKSSSTAYMQLSSLTSEDSAVYFCARERGYFDYWGQGTALTVSS
VL: DIQMTQSPSSLSTSLGGKVTITCKASQDINKYIAWYQHKPGKGPRLLIHYTSTLQPGIPSRFSGSGSGRDYSFSISNLEPEDIATYYCLQYDYLLTFGAGTKLELK
notes: also called mouse anti-human TLR7 antibody (AT01)
B3: the binding result is “no binding” in assay [1] and “binds” in assay [2].
